Laboratory results taken from US6570069B1, “Nucleic acids encoding plant inhibitors of apoptosis and transgenic cells and plants expressing them” (priority 2000, dated 2003).

Test system: apoptosis induced by AcMNPV p35 mutant virus in Sf-21 cells
Assay: Rescue of AcMNPV p35-deleted virus in Sf-21 cells (occlusion body formation)
Type: cell-based, Spodoptera frugiperda
Details: plasmid co-transfected with AcMNPV p35 mutant viral DNA into Sf-21 cells; observed 72 hrs post-transfection
Description: Insect Sf-21 cells were maintained at 27° C. in Excell 401 media (JHR Bioscience) supplemented with 2.5% fetal bovine serum. vP35del, containing a deletion in the p35 gene, was propagated in TN-368 cells (Clem, R. J., et al., (1991) Science 254, 1388-1390). Plasmids encoding full-length or deletion mutants of SfIAP (1 μg) were co-transfected with 1 μg vP35del viral DNA into Sf-21 cells using Lipofectin from Gibco. Occlusion body formation was observed under light microscopy 3 days post-transfection.
SfIAP was tested to see if it also complements. p35-deficiency, preventing apoptosis by this mutant virus, thereby allowing its replication in insect cells. Plasmids containing full-length SfIAP or fragments of SfIAP comprising the two BIRs or the RING domain were co-transfected with AcMNPV p35 mutant viral DNA into Sf-21 cells. Cells were observed 72 hrs post-transfection. […] Thus, analogous to CpIAP and OpIAP, BIR and RING domains of SfIAP are required in combination for inhibition of apoptosis induced by AcMNPV p35 mutant virus.

B1: SfIAP: cellular IAP cloned from Spodoptera frugiperda, protein of 377 amino acids (SEQ ID NO:3); GST-fusion when recombinant (protein, listed as Spodoptera frugiperda)
chain: MWSCSLPCWNTKKSGLQMDITKVASNGSSSTLTLFKSGSLEAKIRPLAPLMLPTPSYDSNAGSPSLSPSTPCSSSSFSIDKTDNHDTFGFSADTVDMRKEDERMKTFEKWPVSFLSGEQLARNGFYYLGRRDEARCAFCKVEIMRWVEGDDPAKDHQRWAPQCPFVRKLNGTAAADTGSSGQDECGARAAPSGTSPPRMAGPVHPRYASEAARLRSFKDWPRCMRQKPEELAEAGFFYTGQGDKTKCFYCDGGLKDWENHDVPWEQHARWFDRCAYVQLVKGREYVQKVISEACEVSASEAERDVAPARTAEPSPPAEAPENSVDDSKLCKICYAEERNVCFVPCGHVVACAKCALAADKCPMCRRTFQNAVRLYFS
modifications: GST fusion when recombinant; fall armyworm inhibitor of apoptosis protein (SfIAP)
Question: With B1 as the molecule, how does the “complementation of p35 deficiency (rescue of mutant virus replication, occlusion body formation)” value read?
Answer: Its value is “complemented p35 deficiency”.
